Data taken from article PMC6322584.

Molecular target: VvWRKY8-mVenus (Vitis vinifera)
Assay: FRET or BRET; FRET with acceptor photobleaching; VvMYB14-mTRQ2 (donor) and VvWRKY8-mVenus (acceptor) from one pFRETtv-2in1-NN vector in agro-infiltrated tobacco leaves, 3 d after infiltration; bleaching with the 488-nm laser at 100% intensity, 15 frames

FRET efficiency: 38.5%
Substance: VvMYB14-mTRQ2 (natural protein)
